# Laboratory results: the DeepSol protein solubility set
# Test: soluble on expression in E. coli; label from the status in PepcDB or PDB records
row,Sequence,soluble on expression in E. coli
1,MGSDKIHHHHHHMQFDPPLQPAILLKRYKRFLADVVTPDGRELTLHCPNTGAMTGCAAPGDTVWYSTSDNAKRKYAHTWELTETQQGAVICVNTLRANSLAKEAISAGIIPELSGYNQLKSEVKYGEENSRIDIMLQADDRQNCYIEVKSVTLAEKEYGYFPDAVTTRGQKHLRELMAVAANGDRAVILFAVLHSAIDRFSPAHHIDARYAQLLTEAQDKGVEILAWKAELSTTRMTLNKPIAVVLNPGK,not soluble
2,MGSDKIHHHHHHMSSSQQIAKNARKAGNILKTISNEGRSDILYKIHDALKANAHAIEEANKIDLAVAKETGLADSLLKRLDLFKGDKFEVMLQGIKDVAELEDPVGKVKMARELDDGLTLYQVTAPVGVLLVIFESRPEVIANITALSIKSGNAAILKGGKESVNTFREMAKIVNDTIAQFQSETGVPVGSVQLIETRQDVSDLLDQDEYIDLVVPRGSNALVRKIKDTTKIPVLGHADGICSIYLDEDADLIKAKRISLDAKTNYPAGCNAMETLLINPKFSKWWEVLENLTLEGGVTIHATKDLKTAYFDKLNELGKLTEAIQCKTVDADEEQDFDKEFLSLDLAAKFVTSTESAIQHINTHSSRHTDAIVTENKANAEKFMKGVDSSGVYWNASTRFADGFRYGFGAEVGISTSKIHARGPVGLDGLVSYQYQIRG,not soluble
3,TAAVALVKANENAAAILNLKNAIQKTNAAVADVVQATQSLGTAVQAVQDHINSVVSPAITAANY,soluble
4,MGSDKIHHHHHHMNRRRIALLLPRLGRYGGVEQFAWHLAEALAQRGHEVDFICARKEGEAPAGVRPVVVGRKGGLKVLKALHYLVQAERMRRRGDYDLTVSFGKTWEQDILRVGGGPLSTFWQLSGEAWPKGPRRTLKCLTRHLSPYNWLTHIIERRQYDGHCKIICVSDAVRGWTLQAFPSLAATPPEVIYNRPQLERFTPAPDTGRAACRERFSIPAGHVAIGTASSNFILKGVGHLIHALSLLPPHFMLLVAGGRNPGPFMDVARKLGVSDRVRFLGRVDDMPAFYNAIDVFALNTFYDACSNAVLEALACGTPALSTTRNGSSRFLPEAWVTDAPDDPADLAARLAALASEERTEGFAWPEDVKAGIPAWVERIEREMESGIRRG,not soluble
5,MKKPELTATSVEKFLIEKFDSVSDLMQLSEGEESRAFSFDVGGRGYVLRVNSCADGFYKDRYVYRHFASAALPIPEVLDIGEFSESLTYCISRRAQGVTLQDLPETELPAVLQPVAEAMDAIAAADLSQTSGFGPFGPQGIGQYTTWRDFICAIADPHVYHWQTVMDDTVSASVAQALDELMLWAEDCPEVRHLVHADFGSNNVLTDNGRITAVIDWSEAMFGDSQYEVANIFFWRPWLACMEQQTRYFERRHPELAGSPRLRAYMLRIGLDQLYQSLVDGNFDDAAWAQGRCDAIVRSGAGTVGRTQIARRSAAVWTDGCVEVLADSGNRRPSTRPRAKE,soluble
6,MIISEFDRNNPVLKDQLSDLLRLTWPEEYGDSSAEEVEEMMNPERIAVAAVDQDELVGFIGAIPQYGITGWELHPLVVESSRRKNQIGTRLVNYLEKEVASRGGITIYLGTDDLDHGTTLSQTDLYEHTFDKVASIQNLREHPYEFYEKLGYKIVGVLPNANGWDKPDIWMAKTIIPRPD,soluble
7,MIGLLFLFAACQEKVTSPAKVDTLPSIFPDYVGVTIPSTIAPLNFRVTDDGVEAVDVVIAGTKGKPVRLNGRSVDIPAKQWHELLESNKGDSIEVKVSVRQGKKWKEYRPFPIYVSPFPIDYGLVYRLLAPGYEVYSKMGIYERELSTFRQTPLFENTQVTAACINCHAFNRTEPTPSSVHVRGGHGATVIDTGDRLEFLDTKADGQLSACVYPYWHPSGEYIAYSVNKTNQAFHLGGKKPIEVFDQASDVVVYHPRSHRILTTPLLSTASFETFPAFSPDGRTLYFCSAEQKEMPVRYKDVKYSLCSIAFHPEDGTFGDRIDTLISARTLDKSISFPKPSFDGKYLMFTLSDYGNFSIWHKEADLWLLDLKTGTYRNLEEVNSDDTESYHNWSSNSHWFVFSSRRGDGLYTRLYISSVDGQGRIGKPFLLPQQDPYTFYDQLIYSYNVPEFVSAPVQWDKREMAKGLMSKERVKVKLEHHHHHH,not soluble
8,GSVVIVGRIILSGSGSITAYSQQTRGLLGCIITSLTGRDKNQVEGEVQVVSTATQSFLATCVNGVCWTVYHGAGSKTLAGPKGPITQMYTNVDQDLVGWQAPPGARSLTPCTCGSSDLYLVTRHADVIPVRRRGDSRGSLLSPRPVSYLKGSSGGPLLCPSGHAVGIFRAAVCTRGVAKAVDFVPVESMETTMRSPVFTDNSSPPAVPQSFQVAHLHAPTGSGKSTKVPAAYAAQGYKVLVLNPSVAATLGFGAYMSKAHGIDPNIRTGVRTITTGAPVTYSTYGKFLADGGCSGGAYDIIICDECHSTDSTTILGIGTVLDQAETAGARLVVLATATPPGSVTVPHPNIEEVALSNTGEIPFYGKAIPIEAIRGGRHLIFCHSKKKCDELAAKLSGLGINAVAYYRGLDVSVIPTIGDVVVVATDALMTGYTGDFDSVIDCNTCVTQTVDFSLDPTFTIETTTVPQDAVSRSQRRGRTGRGRRGIYRFVTPGERPSGMFDSSVLCECYDAGCAWYELTPAETSVRLRAYLNTPGLPVCQDHLEFWESVFTGLTHIDAHFLSQTKQAGDNFPYLVAYQATVCARAQAPPPSWDQMWKCLIRLKPTLHGPTPLLYRLGAVQNEVTLTHPITKYIMACMSADLEVVT,soluble
9,MNTNISGPLISLIVPVYNVKDYLKTCLQSILEQTYKNLEIILVDDGSDDGSSGICDEYARMDQRIKTIHLPHSGVSAARNAGLAAATGELLGFVDSDDWIDHDMYQYLYTLMQEHDADVSACTYLLEQEGRPSKIINNTGKLYVFSRKEIIRALVKNDLVKNYLWAKLFKRKLFDRLSFPVGRVYEDVAVLYKVFYSSQKVVLSCVSKYHYMIHKNESITRGGYDPVKEYHYFLSLYEQDKFIQNAELGGESSVGVLKRGIHLINHTLLCPPSPAFEDIIDETMLKMREYRHITPWQLGPSMSIKRYFMCKHFGFYRMLYRGYRAIFKRKHKLLID,not soluble
10,MSAIIDPSTGKPFKADKQIMGEDIARAYTTGIRNPRPTSVASTITPQRLAGVLRSVIDGNDPEAYMTLAEEIEERDLHYAAQLRTRKFAVAAITPTVEAASDDAIDVLMAERAREIINDDQIPELFFDLLDGLGKGLAVVQILWDTKSTPWKPQDYKWVDPRYLRQDQQTLEQILLISEDAPMGAELEPYKFIIHTPRSKSGSVWRNGLARLVAVMYMLKSFTVRDWWAFAEVFGVPVRVGKYGANASESDISTLINAIGRIASDAGAVIPESMKLELIETAKGNGGDTLFENMARWCDEQISKAVLGQTMTADNGSSQSQATVHNEVRIDIAKWDARQLEASINEYLIKPYIILNWGEQLRYPKVRIKVPEPEDLQLLVNSLTPLIDRGLKVSASEMADKLGLGTVDADEDILLPFQTVGIQAMPTALNRANSQTIAINQVRNTAEREIDNLANEAMGEWEQVAEEFMNPIIDLANKSASYDEFAAGLPALQQQLGAEQFIAQMAQYMFQLRGLGDAQDG,soluble
11,MSLSFHEIRFPASLSFGSVGGPERRTDVVTLANGFEERNTPWAHSRRRYDAGMGMRSLDDIEALIAFFEARQGQIFGFRWKDWSDYKSARPTAEVDFRDQVIGLGDGVQTGFQLLKSYRSGDSIYPRPIAKPVDGTVRMGLGQEEIKEGIDFTLDPTTGMVVLSHPPENGIEVVAGFEFDVPVRFDTDRILTSVASFQAGDVPNVPVVEVRAEGHHHHHH,soluble
12,AEIKAVSAARLLDVASGKYVDNPLVIVTDGRITSIGKKGDAVPAGATAVDLPGVTLLPGLIDMHVHLDSLAEVGGYNSLEYSDRFWSVVQTANAKKTLEAGFTTVRNVGAADYDDVGLREAIDAGYVPGPRIVTAAISFGATGGHCDSTFFPPSMDQKNPFNSDSPDEARKAVRTLKKYGAQVIKICATGGVFSRGNEPGQQQLTYEEMKAVVDEAHMAGIKVAAHAHGASGIREAVRAGVDTIEHASLVDDEGIKLAVQKGAYFSMDIYNTDYTQAEGKKNGVLEDNLRKDRDIGELQRENFRKALKAGVKMVYGTDAGIYPHGDNAKQFAVMVRYGATPLQAIQSATLTAAEALGRSKDVGQVAVGRYGDMIAVAGDPLADVTTLEKPVFVMKGGAVVKAP,soluble
